{
  "source": "paper PMC11997583",
  "key": {"[1]": {"experiment": "GFP/γH2AX colocalisation foci after damage, U2OS", "conditions": "glycan lost; control: GFP-YTHDC1-WT, no inhibitor"}, "[2]": {"experiment": "CCK-8 assay, Zeocin doses and durations", "conditions": "glycan lost; control: YTHDC1-WT"}, "[3]": {"experiment": "FRAP of GFP-YTHDC1 puncta, basal conditions", "conditions": "glycan lost; control: GFP-YTHDC1-WT"}, "[4]": {"experiment": "neutral comet assay after Zeocin", "conditions": "glycan lost; control: YTHDC1-WT rescue after siYTHDC1"}, "[5]": {"experiment": "GFP foci count after Zeocin or IR, U2OS", "conditions": "glycan lost; control: GFP-YTHDC1-WT"}, "[6]": {"experiment": "γH2AX foci count after Zeocin release", "conditions": "glycan lost; control: GFP-YTHDC1-WT"}, "[7]": {"experiment": "Rad51/γH2AX co-staining after Zeocin, U2OS", "conditions": "glycan lost; control: YTHDC1-WT rescue after siYTHDC1"}, "[8]": {"experiment": "chromatin fractionation, anti-Flag blot, Zeocin, 293T", "conditions": "glycan lost; control: YTHDC1-WT"}, "[9]": {"experiment": "FRAP of GFP-YTHDC1 puncta, Zeocin vs untreated", "conditions": "glycan lost; control: GFP-YTHDC1-WT"}},
  "data": [
    {"substance": "YTHDC1: OSMI-1", "values": [
      {"measurement": "localisation_or_trafficking", "setting": "[1]", "value": "decreases"}
    ]},
    {"substance": "YTHDC1: S396A", "values": [
      {"measurement": "localisation_or_trafficking", "setting": "[1]", "value": "decreases"},
      {"measurement": "other: cell survival after Zeocin", "setting": "[2]", "value": "decreases"},
      {"measurement": "other: condensate dynamics (FRAP recovery)", "setting": "[3]", "value": "increases"},
      {"measurement": "other: DSB repair kinetics", "setting": "[4]", "value": "decreases"},
      {"measurement": "localisation_or_trafficking", "setting": "[5]", "value": "decreases"},
      {"measurement": "other: persisting γH2AX foci after damage", "setting": "[6]", "value": "increases"},
      {"measurement": "other: Rad51 recruitment to DSBs", "setting": "[7]", "value": "decreases"},
      {"measurement": "localisation_or_trafficking", "setting": "[8]", "value": "abolishes"},
      {"measurement": "other: Zeocin-induced change in FRAP rate", "setting": "[9]", "value": "abolishes"}
    ]}
  ]
}
